Assay results reported in US20140137294A1, “GLUCOSINOLATE TRANSPORTER PROTEIN AND USES THEREOF” (UNIVERSITY OF COPENHAGEN, priority 2010, published 2014).

B1: BrGTR2-A2: Brassica rapa GTR2-A2 protein, SEQ ID NO: 66 (protein, listed as Brassica rapa)
chain: MERKPLEVESTDHQKPSSAVYDGSATAVDSVEEEVQETKLVYRGWKVMPFIIGNETFEKLGIIGTLSNLLVYLTAVFNMKSITAATIINAFSGTINFGTFVAAFLCDTYFGRYKTLTVAVIACFLGSLVILLTAAVPQLHPAPCGIALTCTGPSGGQIAFLLMGLAFLVVGAGGIRPCNLAFGADQFNPKSESGKRGIDSFFNWYFFTFTFAQILSLTLVVYIQSNVSWTIGLTIPVVLMFLACVIFFAGDKLYVKIKASGSPLASIAQVITVAIKKRGLKAVKQPWVNLYNYYPLNYANSKLKYTDQFRFLDKAAILAPEDKLEADGKPTDPWKLCTMQQVEEVKCIVRVLPIWFASSIYYLTITQQMTYPVFQALQSDRRLGSGGFVIPAATYVVFLMTGMTVFIIIYDRVLVPTLRRITGIDTGITLLQRIGTGIFFAFLSLVVSGFVEERRRTFALTKPTLGMAPRKGEISSMSAMWLIPQLTLAGVAEAFGAIGQMEFYYKQFPENMRSFAGSIFYVGGGVSSYLGSFLIATVHRTTQNSAGGNWLAEDLNKGRLDLFYFMIAGILAVNFAYFLVMSRWYRYKGSDDEVTAYETNGDVIKQQDKNKV
B2: BrGTR2 (G145R): BrGTR2-A2 protein with Gly to Arg at position 145 of SEQ ID NO: 66 (protein, listed as Brassica rapa)
chain: MERKPLEVESTDHQKPSSAVYDGSATAVDSVEEEVQETKLVYRGWKVMPFIIGNETFEKLGIIGTLSNLLVYLTAVFNMKSITAATIINAFSGTINFGTFVAAFLCDTYFGRYKTLTVAVIACFLGSLVILLTAAVPQLHPAPCRIALTCTGPSGGQIAFLLMGLAFLVVGAGGIRPCNLAFGADQFNPKSESGKRGIDSFFNWYFFTFTFAQILSLTLVVYIQSNVSWTIGLTIPVVLMFLACVIFFAGDKLYVKIKASGSPLASIAQVITVAIKKRGLKAVKQPWVNLYNYYPLNYANSKLKYTDQFRFLDKAAILAPEDKLEADGKPTDPWKLCTMQQVEEVKCIVRVLPIWFASSIYYLTITQQMTYPVFQALQSDRRLGSGGFVIPAATYVVFLMTGMTVFIIIYDRVLVPTLRRITGIDTGITLLQRIGTGIFFAFLSLVVSGFVEERRRTFALTKPTLGMAPRKGEISSMSAMWLIPQLTLAGVAEAFGAIGQMEFYYKQFPENMRSFAGSIFYVGGGVSSYLGSFLIATVHRTTQNSAGGNWLAEDLNKGRLDLFYFMIAGILAVNFAYFLVMSRWYRYKGSDDEVTAYETNGDVIKQQDKNKV
B3: BrGTR2 (G126R): BrGTR2-A2 protein with Gly to Arg at position 126 of SEQ ID NO: 66 (protein, listed as Brassica rapa)
chain: MERKPLEVESTDHQKPSSAVYDGSATAVDSVEEEVQETKLVYRGWKVMPFIIGNETFEKLGIIGTLSNLLVYLTAVFNMKSITAATIINAFSGTINFGTFVAAFLCDTYFGRYKTLTVAVIACFLRSLVILLTAAVPQLHPAPCGIALTCTGPSGGQIAFLLMGLAFLVVGAGGIRPCNLAFGADQFNPKSESGKRGIDSFFNWYFFTFTFAQILSLTLVVYIQSNVSWTIGLTIPVVLMFLACVIFFAGDKLYVKIKASGSPLASIAQVITVAIKKRGLKAVKQPWVNLYNYYPLNYANSKLKYTDQFRFLDKAAILAPEDKLEADGKPTDPWKLCTMQQVEEVKCIVRVLPIWFASSIYYLTITQQMTYPVFQALQSDRRLGSGGFVIPAATYVVFLMTGMTVFIIIYDRVLVPTLRRITGIDTGITLLQRIGTGIFFAFLSLVVSGFVEERRRTFALTKPTLGMAPRKGEISSMSAMWLIPQLTLAGVAEAFGAIGQMEFYYKQFPENMRSFAGSIFYVGGGVSSYLGSFLIATVHRTTQNSAGGNWLAEDLNKGRLDLFYFMIAGILAVNFAYFLVMSRWYRYKGSDDEVTAYETNGDVIKQQDKNKV
B4: BrGTR2 (S359F): BrGTR2-A2 protein with Ser to Phe at position 359 of SEQ ID NO: 66 (protein, listed as Brassica rapa)
chain: MERKPLEVESTDHQKPSSAVYDGSATAVDSVEEEVQETKLVYRGWKVMPFIIGNETFEKLGIIGTLSNLLVYLTAVFNMKSITAATIINAFSGTINFGTFVAAFLCDTYFGRYKTLTVAVIACFLGSLVILLTAAVPQLHPAPCGIALTCTGPSGGQIAFLLMGLAFLVVGAGGIRPCNLAFGADQFNPKSESGKRGIDSFFNWYFFTFTFAQILSLTLVVYIQSNVSWTIGLTIPVVLMFLACVIFFAGDKLYVKIKASGSPLASIAQVITVAIKKRGLKAVKQPWVNLYNYYPLNYANSKLKYTDQFRFLDKAAILAPEDKLEADGKPTDPWKLCTMQQVEEVKCIVRVLPIWFASFIYYLTITQQMTYPVFQALQSDRRLGSGGFVIPAATYVVFLMTGMTVFIIIYDRVLVPTLRRITGIDTGITLLQRIGTGIFFAFLSLVVSGFVEERRRTFALTKPTLGMAPRKGEISSMSAMWLIPQLTLAGVAEAFGAIGQMEFYYKQFPENMRSFAGSIFYVGGGVSSYLGSFLIATVHRTTQNSAGGNWLAEDLNKGRLDLFYFMIAGILAVNFAYFLVMSRWYRYKGSDDEVTAYETNGDVIKQQDKNKV
B5: BrGTR2 (E192K): BrGTR2-A2 protein with Glu to Lys at position 192 of SEQ ID NO: 66 (protein, listed as Brassica rapa)
chain: MERKPLEVESTDHQKPSSAVYDGSATAVDSVEEEVQETKLVYRGWKVMPFIIGNETFEKLGIIGTLSNLLVYLTAVFNMKSITAATIINAFSGTINFGTFVAAFLCDTYFGRYKTLTVAVIACFLGSLVILLTAAVPQLHPAPCGIALTCTGPSGGQIAFLLMGLAFLVVGAGGIRPCNLAFGADQFNPKSKSGKRGIDSFFNWYFFTFTFAQILSLTLVVYIQSNVSWTIGLTIPVVLMFLACVIFFAGDKLYVKIKASGSPLASIAQVITVAIKKRGLKAVKQPWVNLYNYYPLNYANSKLKYTDQFRFLDKAAILAPEDKLEADGKPTDPWKLCTMQQVEEVKCIVRVLPIWFASSIYYLTITQQMTYPVFQALQSDRRLGSGGFVIPAATYVVFLMTGMTVFIIIYDRVLVPTLRRITGIDTGITLLQRIGTGIFFAFLSLVVSGFVEERRRTFALTKPTLGMAPRKGEISSMSAMWLIPQLTLAGVAEAFGAIGQMEFYYKQFPENMRSFAGSIFYVGGGVSSYLGSFLIATVHRTTQNSAGGNWLAEDLNKGRLDLFYFMIAGILAVNFAYFLVMSRWYRYKGSDDEVTAYETNGDVIKQQDKNKV

System: Xenopus oocytes
Assay: 4-MTB uptake in Xenopus oocytes expressing wildtype or mutant BrGTR2-A2 proteins
Assay type: cell-based
Conditions: 0.5 mM 4-MTB for one hour

Molecule	4-MTB imported (pH 5, non-injected oocytes no detectable uptake)	4-MTB uptake activity of mutant BrGTR2-A2 protein versus wildtype
B1	about 2.5 nmol 4-MTB per hour per oocyte	
B2		no significant change in uptake of 4-MTB
B3		almost no uptake activity
B4		increased uptake activity
B5		reduction in glucosinolate uptake
